Patent publication US20200216495A1 (ADRX, published 2020)
“And” between values parts separate entries of the source, which are not always exact repeats. Identical values can stand only once. Square brackets hold non-standard residues; d marks the D form. Ends that are not written are not given here. dMet(O) = CS(=O)CC[C@@H](N)C(=O)O

target: Tau40 P301L protein (human); assay: cell-based or functional assay

Binder	IC50, Tau40 assay (ThT)
[dW][dA][dL][dR][dI][dH][dW] [walrihw]	3.23 µM
[dW][dR][dA][dK][dV][dR][dW] [wrakvrw]	3.23 µM
[dW][dR][dL][dD][dV][dR][dW] [wrldvrw]	3.13 µM
[dF][dH][dL][dK][dI][dR][dH][dH] [fhlkirhh]	3.29 µM and 3.36 µM
[dK][dI][dK][dI][dK][dW] [kikikw]	2.92 µM
[dW][dH][dV][dK][dF][dE][dL][dF] [whvkfelf]	2.88 µM
[dW][dR][dL][dE][dI][dH][dW] [wrleihw]	3.23 µM
[dW][dR][dL][dK][dA][dR][dW] [wrlkarw]	3.23 µM
[dL][dK][dI][dY][dI][dH][dY] [lkiyihy]	2.93 µM
[dF][dE][dL][dH][dI][dK][dW][dH] [felhikwh]	3.11 µM
[dL][dK][dI][dW][dI][dW][dY][dH] [lkiwiwyh]	3.19 µM
[dW][dR][dL][dN][dV][dN][dW] [wrlnvnw]	3.23 µM
[dW][dR][dI][dR][dI][dR][dW] [wririrw]	3 µM
[dL][dK][dI][dF][dI][dW][dY][dH] [lkifiwyh]	3.33 µM
[dL][dK][dI][dR][dR][dH][dY][dH] [lkirrhyh]	3.21 µM
[dF][dK][dI][dR][dI][dK][dW][dH] [fkirikwh]	3.06 µM and 5.46 µM
[dW][dR][dL][dR][dI][dW][dW] [wrlriww]	3.06 µM
[dW][dK][dL][dW][dL][dR][dW][dW] [wklwlrww]	2.94 µM
[dL][dK][dI][dA][dI][dH][dY] [lkiaihy]	2.96 µM
[dW][dR][dT][dR][dI][dH][dW] [wrtrihw]	3.23 µM
[dW][dR][dA][dR][dI][dH][dW] [wrarihw]	3.33 µM
[dA][dR][dL][dK][dV][dR][dW] [arlkvrw]	3.23 µM
[dL][dK][dI][dMet(O)][dI][dH][dY] [lkixihy]	2.81 µM
[dF][dR][dL][dW][dI][dH][dW] [frlwihw]	3.33 µM
[dW][dR][dL][dR][dI][dH][dA] [wrlriha]	3.23 µM

Other lines, results leading:

IC50, Tau40 assay (ThT)	Binder
3.21 µM and 4.3 µM	[dF][dH][dI][dR][dL][dR][dH][dH] [fhirlrhh]
3.32 µM	[dL][dK][dI][dE][dI][dH][dY] [lkieihy]
3.16 µM	[dL][dK][dI][dR][dI][dH][dR][dH] [lkirihrh]
3.32 µM	[dL][dK][dI][dR][dI][dH][dY][dE] [lkirihye]
3.36 µM	[dE][dR][dL][dK][dV][dR][dW][dW] [erlkvrww]
2.96 µM	[dR][dL][dR][dI][dR][dW] [rlrirw]
2.92 µM	[dL][dK][dI][dR][dI][dH][dA] [lkiriha]
3.23 µM	[dW][dR][dL][dR][dI][dE][dW] [wrlriew]
3.23 µM	[dW][dR][dL][dM][dI][dH][dW] [wrlmihw]
2.97 µM	[dK][dL][dK][dL][dK][dW] [klklkw]
2.81 µM	[dW][dK][dL][dV][dV][dW] [wklvvw]
3.23 µM	[dF][dR][dI][dR][dL][dR][dW] [frirlrw]
3.07 µM	[dE][dR][dL][dK][dV][dR][dW] [erlkvrw]
3.33 µM	[dW][dN][dL][dN][dV][dR][dW] [wnlnvrw]
3.23 µM	[dW][dR][dL][dR][dA][dH][dW] [wrlrahw]
2.79 µM	[dW][dR][dL][dR][dI][dF][dW] [wrlrifw]
3.29 µM	[dW][dK][dV][dH][dI][dQ][dH][dW] [wkvhiqhw]
3.33 µM	[dW][dR][dL][dR][dT][dH][dW] [wrlrthw]
3.23 µM	[dW][dR][dL][dK][dV][dR][dW][dW] [wrlkvrww]
